Experimental findings from US10184115B2, “Mutated cellobiose dehydrogenase with increased substrate specificity” (DIRECTSENS GMBH, priority 2012, dated 2019) are described below.

Substrate in data set [1]: OC[C@H]1O[C@H](O[C@H]2[C@H](O)[C@@H](O)C(O)O[C@@H]2CO)[C@H](O)[C@@H](O)[C@@H]1O
As to the kind of experiment: purified protein, by the assay type. The conditions noted are these: other: apparent, wt, DCIP assay, pH 5.5, 30° C.

Substrate in data set [2]: OC[C@H]1OC(O)[C@H](O)[C@@H](O)[C@@H]1O
The data set can be described thus: purified protein, by the assay type. The conditions noted are these: other: apparent, wt, DCIP assay, pH 5.5, 30° C.

B1: Corynascus thermophilus cellobiose dehydrogenase (CDH), recombinant wild type, SEQ ID NO: 7 (Thermothelomyces fergusii) (protein)
chain: QMTEGTYTHEATGITFKTWTPSDGSTFTFGLALPGDALTNDATEYIGLLRCQITDPSSPGYCGISHGQSGQMTQALLLVAWASEDVVYTSFRYATGYTLPELYTGDAKLTQIASSVSGDSFEVLFRCENCFSWDQNGATGSVSTSNGALVLGYAASKSGLTGATCPDTAEFGFHNNGFGQWGAVLEGATSDSYEEWAQLATITPPTTCDGNGPGDKVCVPAPEDTYDYIVVGAGAGGITVADKLSEAGHKVLLIEKGPPSTGLWNGTMKPEWLEGTDLTRFDVPGLCNQIWVDSAGIACTDTDQMAGCVLGGGTAVNAGLWWKPHPADWDDNFPHGWKSSDLADATERVFSRIPGTWHPSQDGKLYRQEGFEVISQGLANAGWREVDANQEPSEKNRTYSHSVFMFSGGERGGPLATYLASAAQRSNFNLWVNTSVRRAIRTGPRVSGVELECLADGGFNGTVNLKEGGGVIFSAGAFGSAKLLLRSGIGPEDQLEIVASSKDGETFISKNDWIKLPVGHNLIDHLNTDLIITHPDVVFYDFYAAWDNPITEDKEAYLNSRSGILAQAAPNIGPLMWEEVTPSDGITRQFQWTCRVEGDSSKTNSTHAMTLSQYLGRGVVSRGRMGITSGLTTTVAEHPYLHNDGDLEAVIQGIQNVVDALSQVPDLEWVLPPPNTTVEEYVNSLIVSPANRRANHWMGTAKMGLDDGRSGGSAVVDLNTKVYGTDNLFVVDASIFPGMSTGNPSAMIVIVAEQAAQRILSLRY
A word on the Km: it is the substrate concentration at which the rate is half of its maximum. As a reminder, the kcat is the number of substrate molecules converted per active site and unit of time at saturation. For orientation: kcat/Km means the turnover number divided by the Michaelis constant. For B1, in data set [1], the Km is on record as 4.08 mM, the kcat stood at 0.50 s⁻¹ and the kcat/Km came out at 120 M⁻¹ s⁻¹. In addition, the Km in data set [2] stood at 86.7 mM.
